Measurements from article PMC9554752, “Complement membrane attack complex is an immunometabolic regulator of NLRP3 activation and IL-18 secretion in human macrophages” (Frontiers in Immunology, 2022).

Molecular target: the molecule itself
Assay: Western blot of dimer and monomer bands after SDS-PAGE; hMDMs incubated with MAC (+/- anti-C7) or 5 uM MitoPQ for 3 hours; cells treated with 80 mM MMTS for 10 min at RT before lysis; % dimer = SI dimer/(SI dimer + SI monomer) x 100, expressed relative to untreated control

B1: mitochondrial peroxiredoxin 3 (natural protein, human (endogenous in hMDMs), UniProt P30048 62-256, looked up)
chain: APAVTQHAPYFKGTAVVNGEFKDLSLDDFKGKYLVLFFYPLDFTFVCPTEIVAFSDKANEFHDVNCEVVAVSVDSHFSHLAWINTPRKNGGLGHMNIALLSDLTKQISRDYGVLLEGSGLALRGLFIIDPNGVIKHLSVNDLPVGRSVEETLRLVKAFQYVETHGEVCPANWTPDSPTIKPSPAASKEYFQKVNQ
notes: peroxiredoxin 3 (Prx3), mitochondrial, endogenous in human monocyte-derived macrophages; detected with rabbit anti-Prx3 (Abcam Ab73349); Cells were incubated in 80 mM methylmethanethiosulfonate (MMTS) for 10 min before lysis; also called Prx3; Prx; source: endogenous, hMDM (human monocyte-derived macrophage) lysate
**Q.** For B1, which “stoichiometry N” value is on record?
**A.** 2
